From patent US9738911B2, “Methods of producing 7-carbon chemicals via pyruvate and succinate semialdehyde aldol condensation” (INVISTA North America S.a r.l., priority 2012, dated 2017)
One block for each molecule: values may come before it.

Tests used:
Format in all cases: biochemical
[1] = Carboxylate reductase activity assay, pimelate to pimelate semialdehyde; conditions: 2 mM pimelate, 1 mM ATP, 1 mM NADPH, enhanced by sfp gene product, room temperature, 20 min; against empty vector control (FIG. 10)
Method: A sequence encoding a HIS-tag was added to the genes from Segniliparus rugosus and Segniliparus rotundus that encode the carboxylate reductases of SEQ ID NOs: 4 and 7, respectively (see FIGS. 7C and 7F), such that N-terminal HIS tagged carboxylate reductases could be produced. Each of the modified genes was cloned into a pET Duet expression vector along with a sfp gene encoding a HIS-tagged phosphopantetheine transferase from Bacillus subtilis, both under the T7 promoter. Each expression vector was transformed into a BL21[DE3] E. coli host and the resulting recombinant E. coli strains were cultivated at 37° C. in a 250 mL shake flask culture containing 50 mL LB media and antibiotic selection pressure, with shaking at 230 rpm. Each culture was induced overnight at 37° C. using an auto-induction media.
The pellet from each induced shake flask culture was harvested via centrifugation. Each pellet was resuspended and lysed via sonication, and the cell debris was separated from the supernatant via centrifugation. […]
Enzyme activity assays (i.e., from pimelate to pimelate semialdehyde) were performed in triplicate in a buffer composed of a final concentration of 50 mM HEPES buffer (pH=7.5), 2 mM pimelate, 10 mM MgCl, 1 mM ATP and 1 mM NADPH. […] The consumption of NADPH was monitored by absorbance at 340 nm.

[2] = Thioesterase enzyme activity assay, pimeloyl-CoA to pimelate; conditions: 667 μM pimeloyl-CoA, 0.8 μM enzyme, 37° C., 20 min, pH 7.4; compared to empty vector control (FIG. 8)
Method: A sequence encoding an N-terminal His tag was added to the tesB gene from Escherichia coli that encodes a thioesterase (SEQ ID NO 1, see FIG. 7A), such that an N-terminal HIS tagged thioesterase could be produced. The modified tesB gene was cloned into a pET15b expression vector under control of the T7 promoter. The expression vector was transformed into a BL21[DE3] E. coli host. The resulting recombinant E. coli strain was cultivated at 37° C. in a 500 mL shake flask culture containing 50 mL Luria Broth (LB) media and antibiotic selection pressure, with shaking at 230 rpm. The culture was induced overnight at 17° C. using 0.5 mM IPTO.
The pellet from the induced shake flask culture was harvested via centrifugation. The pellet was resuspended and lysed in Y-Per™ solution (ThermoScientific, Rockford, Ill.). The cell debris was separated from the supernatant via centrifugation. […]
The enzyme activity assay was performed in triplicate in a buffer composed of 50 mM phosphate buffer (pH=7.4), 0.1 mM Ellman's reagent, and 667 μM of pimeloyl-CoA (as substrate). […] The release of Coenzyme A was monitored by absorbance at 412 nm. The absorbance associated with the substrate only control, which contained boiled enzyme, was subtracted from the active enzyme assay absorbance and compared to the empty vector control.

[3] = Carboxylate reductase activity assay, N7-acetyl-7-aminoheptanoate to N7-acetyl-7-aminoheptanal; conditions: 2 mM N7-acetyl-7-aminoheptanoate, 1 mM ATP, 1 mM NADPH, enhanced by sfp gene product, room temperature, 20 min; against empty vector control (FIG. 12)
Method: The activity of each of the N-terminal His-tagged carboxylate reductases of SEQ ID NOs: 3, 6, and 7 (see Examples 4, and FIGS. 7B, 7E, and 7F) for converting N7-acetyl-7-aminoheptanoate to N7-acetyl-7-aminoheptanal was assayed in triplicate in a buffer composed of a final concentration of 50 mM HEPES buffer (pH=7.5), 2 mM N7-acetyl-7-aminoheptanoate, 10 mM MgCl2, 1 mM ATP, and 1 mM NADPH. The assays were initiated by adding purified carboxylate reductase and phosphopantetheine transferase or the empty vector control to the assay buffer containing the N7-acetyl-7-aminoheptanoate then incubated at room temperature for 20 min. The consumption of NADPH was monitored by absorbance at 340 nm.

- substrate acceptance, consumption of NADPH by absorbance at 340 nm [1]: accepted pimelate as substrate
B1: SEQ ID NO 4: Segniliparus rugosus carboxylate reductase (Genbank Accession No. EFV 11917.1) (protein, listed as Segniliparus rugosus)
chain: MGDGEERAKRFFQRIGELSATDPQFAAAAPDPAVVEAVSDPSLSFTRYLDTLMRGYAERPALAHRVGAGYETISYGELWARVGAIAAAWQADGLAPGDFVATVGFTSPDYVAVDLAAARSGLVSVPLQAGASLAQLVGILEETEPKVLAASASSLEGAVACALAAPSVQRLVVFDLRGPDASESAADERRGALADAEEQLARAGRAVVVETLADLAARGEALPEAPLFEPAEGEDPLALLIYTSGSTGAPKGAMYSQRLVSQLWGRTPVVPGMPNISLHYMPLSHSYGRAVLAGALSAGGTAHFTANSDLSTLFEDIALARPTFLALVPRVCEMLFQESQRGQDVAELRERVLGGRLLVAVCGSAPLSPEMRAFMEEVLGFPLLDGYGSTEALGVMRNGIIQRPPVIDYKLVDVPELGYRTTDKPYPRGELCIRSTSLISGYYKRPEITAEVFDAQGYYKTGDVMAEIAPDHLVYVDRSKNVLKLSQGEFVAVAKLEAAYGTSPYVKQIFVYGNSERSFLLAVVVPNAEVLGARDQEEAKPLIAASLQKIAKEAGLQSYEVPRDFLIETEPFTTQNGLLSEVGKLLRPKLKARYGEALEARYDEIAHGQADELRALRDGAGQRPVVETVVRAAVAISGSEGAEVGPEANFADLGGDSLSALSLANLLHDVFEVEVPVRIIIGPTASLAGIAKHIEAERAGASAPTAASVHGAGATRIRASELTLEKFLPEDLLAAAKGLPAADQVRTVLLTGANGWLGRFLALEQLERLARSGQDGGKLICLVRGKDAAAARRRIEETLGTDPALAARFAELAEGRLEVVPGDVGEPKFGLDDAAWDRLAEEVDVIVHPAALVNHVLPYHQLFGPNVVGTAEIIRLAITAKRKPVTYLSTVAVAAGVEPSSFEEDGDIRAVVPERPLGDGYANGYGNSKWAGEVLLREAHELVGLPVAVFRSDMILAHTRYTGQLNVPDQFTRLVLSLLATGIAPKSFYQQGAAGERQRAHYDGIPVDFTAEAITTLGAEPSWFDGGAGFRSFDVFNPHHDGVGLDEFVDWLIEAGHPISRIDDHKEWFARFETAVRGLPEAQRQHSLLPLLRAYSFPHPPVDGSVYPTGKFQGAVKAAQVGSDHDVPHLGKALIVKYADDLKALGLL

- substrate acceptance, release of Coenzyme A monitored by absorbance at 412 nm [2]: accepted pimeloyl-CoA as substrate
B2: gene product of tesB: Escherichia coli thioesterase encoded by tesB (GenBank Accession No. AAA24665.1) (protein, listed as Escherichia coli)
chain: MSQALKNLLTLLNLEKIEEGLFRGQSEDLGLRQVFGGQVVGQALYAAKETVPEERLVHSFHSYFLRPGDSKKPIIYDVETLRDGNSFSARRVAAIQNGKPIFYMTASFQAPEAGFEHQKTMPSAPAPDGLPSETQIAQSLAHLLPPVLKDKFICDRPLEVRPVEFHNPLKGHVAEPHRQVWIRANGSVPDDLRVHQYLLGYASDLNFLPVALQPHGIGFLEPGIQIATIDHSMWFHRPFNLNEWLLYSVESTSASSARGFVRGEFYTQDGVLVASTVQEGVMRNHN

B3: SEQ ID NO 6: Mycobacterium massiliense carboxylate reductase (Genbank Accession No. EIV 11143.1) (protein)
chain: MTNETNPQQEQLSRRIESLRESDPQFRAAQPDPAVAEQVLRPGLHLSEAIAALMTGYAERPALGERARELVIDQDGRTTLRLLPRFDTTTYGELWSRTTSVAAAWHHDATHPVKAGDLVATLGFTSIDYTVLDLAIMILGGVAVPLQTSAPASQWTTILAEAEPNTLAVSIELIGAAMESVRATPSIKQVVVFDYTPEVDDQREAFEAASTQLAGTGIALETLDAVIARGAALPAAPLYAPSAGDDPLALLIYTSGSTGAPKGAMHSENIVRRWWIREDVMAGTENLPMIGLNFMPMSHIMGRGTLTSTLSTGGTGYFAASSDMSTLFEDMELIRPTALALVPRVCDMVFQRFQTEVDRRLASGDTASAEAVAAEVKADIRDNLFGGRVSAVMVGSAPLSEELGEFIESCFELNLTDGYGSTEAGMVFRDGIVQRPPVIDYKLVDVPELGYFSTDKPHPRGELLLKTDGMFLGYYKRPEVTASVFDADGFYMTGDIVAELAHDNIEIIDRRNNVLKLSQGEFVAVATLEAEYANSPVVHQIYVYGSSERSYLLAVVVPTPEAVAAAKGDAAALKTTIADSLQDIAKEIQLQSYEVPRDFIIEPQPFTQGNGLLTGIAKLARPNLKAHYGPRLEQMYAEIAEQQAAELRALHGVDPDKPALETVLKAAQALLGVSSAELAADAHFTDLGGDSLSALSFSDLLRDIFAVEVPVGVIVSAANDLGGVAKFVDEQRHSGGTRPTAETVHGAGHTEIRAADLTLDKFIDEATLHAAPSLPKAAGIPHTVLLTGSNGYLGHYLALEWLERLDKTDGKLIVIVRGKNAEAAYGRLEEAFDTGDTELLAHFRSLADKHLEVLAGDIGDPNLGLDADTWQRLADTVDVIVHPAALVNHVLPYNQLFGPNVVGTAEIIKLAITTKIKPVTYLSTVAVAAYVDPTTFDEESDIRLISAVRPIDDGYANGYGNAKWAGEVLLREAHDLCGLPVAVFRSDMILAHSRYTGQLNVPDQFTRLILSLIATGIAPGSFYQAQTTGERPLAHYDGLPGDFTAEAITTLGTQVPEGSEGFVTYDCVNPHADGISLDNFVDWLIEAGYPIARIDNYTEWFTRFDTAIRGLSEKQKQHSLLPLLHAFEQPSAAENHGVVPAKRFQHAVQAAGIGPVGQDGTTDIPHLSRRLIVKYAKDLEQLGLL
modifications: Mycobacterium massiliense
- substrate acceptance, consumption of NADPH by absorbance at 340 nm [3]: accepted N7-acetyl-7-aminoheptanoate as substrate
